Source: the RNAGym collection of RNA variant scans (doi:10.7554/elife.90254)

B1: LINE1-mini (parent)
chain: GGCAGAGCUCAACACAGCGUGGCAAAGUGGCUGUGGCUAGACUGCC

Variants of: B1
Experiment: self-cleavage, relative activity (ratio to wild type); higher = more cleavage; in vitro, sequencing; the parent is a self-cleaving ribozyme

Variant | self-cleavage
GGCAGAGCUCAACACAGCGUGGCAAAGUGGCUAUUGCUAGACUGCC [G33A G35U] | 0.1
GGCAGAGCUCAACACAGCGUGGCAAAGUGGCUAUGGCUAGGCUGCC [G33A A41G] | 0.11
GGCAGAGCUCAACACAGCGUGGCAAAGUGGCUAUGGCUAGUCUGCC [G33A A41U] | 0.11
GGCAGAGCUCAACACAGCGUGGCAAAGUGGCUAUGGCUAGCCUGCC [G33A A41C] | 0.07
GGCAGAGCUCAACACAGCGUGGCAAAGUGGCGGUGGCUAGACCGCC [U32G U43C] | 0.07
GGCAGAGCUCAACACAGCGUGGCAAAGUGGCGGUGGCUAGACAGCC [U32G U43A] | 0.04
GGCAGAGCUCAACACAGCGUGGCAAAGUGGCGGUGGCUAGACGGCC [U32G U43G] | 0.04
GGCAGAGCUCAACACAGCGUGGCAAAGUGGCUAUGGCUAGACUGCA [G33A C46A] | 0.1
GGCAGAGCUCAACACAGCGUGGCAAAGUGGCUAUGGCUAGACUGCG [G33A C46G] | 0.08
GGCAGAGCUCAACACAGCGUGGCAAAGUGGCUAUGGCUAGACUGCU [G33A C46U] | 0.12
GGCAGAGCUCAACACAGCGUGGCAAAGUGGCCGUGGCUAGACUGGC [U32C C45G] | 0.03
GGCAGAGCUCAACACAGCGUGGCAAAGUGGCCGUGGCUAGACUGAC [U32C C45A] | 0.2
GGCAGAGCUCAACACAGCGUGGCAAAGUGGCCGUGGCUAGACUGUC [U32C C45U] | 0.12
GGCAGAGCUCAACACAGCGUGGCAAAGUGGCUAUGACUAGACUGCC [G33A G36A] | 0.12
GGCAGAGCUCAACACAGCGUGGCAAAGUGGCUAUGCCUAGACUGCC [G33A G36C] | 0.05
GGCAGAGCUCAACACAGCGUGGCAAAGUGGCUAUGUCUAGACUGCC [G33A G36U] | 0.09
GGCAGAGCUCAACACAGCGUGGCAAAGUGGCCGUGGUUAGACUGCC [U32C C37U] | 0.07
GGCAGAGCUCAACACAGCGUGGCAAAGUGGCCGUGGAUAGACUGCC [U32C C37A] | 0.15
GGCAGAGCUCAACACAGCGUGGCAAAGUGGCCGUGGGUAGACUGCC [U32C C37G] | 0.06

Variant | self-cleavage
GGCAGAGCUCAACACAGCGUGGCAAAGUGGCUAUGGCUAGACUGCC [G33A] | 0.11
GGCAGAGCUCAACACAGCGUGGCAAAGUGGCUAUGGCUACACUGCC [G33A G40C] | 0.09
GGCAGAGCUCAACACAGCGUGGCAAAGUGGCUAUGGCUAUACUGCC [G33A G40U] | 0.09
GGCAGAGCUCAACACAGCGUGGCAAAGUGGCUAUGGCUAAACUGCC [G33A G40A] | 0.07
GGCAGAGCUCAACACAGCGUGGCAAAGUGGCCGUGGCUAGAAUGCC [U32C C42A] | 0.12
GGCAGAGCUCAACACAGCGUGGCAAAGUGGCCGUGGCUAGAGUGCC [U32C C42G] | 0.1
GGCAGAGCUCAACACAGCGUGGCAAAGUGGCCGUGGCUAGAUUGCC [U32C C42U] | 0.22
GGCAGAGCUCAACACAGCGUGGCAAAGUGGCCGUGUCUAGACUGCC [U32C G36U] | 0.06
GGCAGAGCUCAACACAGCGUGGCAAAGUGGCCGUGACUAGACUGCC [U32C G36A] | 0.08
GGCAGAGCUCAACACAGCGUGGCAAAGUGGCCGUGCCUAGACUGCC [U32C G36C] | 0.04
GGCAGAGCUCAACACAGCGUGGCAAAGUGGCGGUGGCUAGACUGGC [U32G C45G] | 0.11
GGCAGAGCUCAACACAGCGUGGCAAAGUGGCGGUGGCUAGACUGUC [U32G C45U] | 0.12
GGCAGAGCUCAACACAGCGUGGCAAAGUGGCGGUGGCUAGACUGAC [U32G C45A] | 0.1
GGCAGAGCUCAACACAGCGUGGCAAAGUGGCCGUCGCUAGACUGCC [U32C G35C] | 0.08
GGCAGAGCUCAACACAGCGUGGCAAAGUGGCCGUUGCUAGACUGCC [U32C G35U] | 0.12
GGCAGAGCUCAACACAGCGUGGCAAAGUGGCCGUAGCUAGACUGCC [U32C G35A] | 0.06
GGCAGAGCUCAACACAGCGUGGCAAAGUGGCGGUGGCUAGACUUCC [U32G G44U] | 0.05
GGCAGAGCUCAACACAGCGUGGCAAAGUGGCGGUGGCUAGACUACC [U32G G44A] | 0.08
GGCAGAGCUCAACACAGCGUGGCAAAGUGGCGGUGGCUAGACUCCC [U32G G44C] | 0.06

Variant | self-cleavage
GGCAGAGCUCAACACAGCGUGGCAAAGUGGCCGAGGCUAGACUGCC [U32C U34A] | 0.05
GGCAGAGCUCAACACAGCGUGGCAAAGUGGCCGCGGCUAGACUGCC [U32C U34C] | 0.16
GGCAGAGCUCAACACAGCGUGGCAAAGUGGCCGGGGCUAGACUGCC [U32C U34G] | 0.08
GGCAGAGCUCAACACAGCGUGGCAAAGUGGCGGUGGCUAGAAUGCC [U32G C42A] | 0.04
GGCAGAGCUCAACACAGCGUGGCAAAGUGGCGGUGGCUAGAGUGCC [U32G C42G] | 0.14
GGCAGAGCUCAACACAGCGUGGCAAAGUGGCGGUGGCUAGAUUGCC [U32G C42U] | 0.11
GGCAGAGCUCAACACAGCGUGGCAAAGUGGCGGCGGCUAGACUGCC [U32G U34C] | 0.06
GGCAGAGCUCAACACAGCGUGGCAAAGUGGCGGAGGCUAGACUGCC [U32G U34A] | 0.04
GGCAGAGCUCAACACAGCGUGGCAAAGUGGCGGGGGCUAGACUGCC [U32G U34G] | 0.03
GGCAGAGCUCAACACAGCGUGGCAAAGUGGCCGUGGCUAGACUGCG [U32C C46G] | 0.1
GGCAGAGCUCAACACAGCGUGGCAAAGUGGCCGUGGCUAGACUGCA [U32C C46A] | 0.16
GGCAGAGCUCAACACAGCGUGGCAAAGUGGCCGUGGCUAGACUGCU [U32C C46U] | 0.2
GGCAGAGCUCAACACAGCGUGGCAAAGUGGCCAUGGCUAGACUGCC [U32C G33A] | 0.05
GGCAGAGCUCAACACAGCGUGGCAAAGUGGCCUUGGCUAGACUGCC [U32C G33U] | 0.13
GGCAGAGCUCAACACAGCGUGGCAAAGUGGCCCUGGCUAGACUGCC [U32C G33C] | 0.04
GGCAGAGCUCAACACAGCGUGGCAAAGUGGCGGUGUCUAGACUGCC [U32G G36U] | 0.1
GGCAGAGCUCAACACAGCGUGGCAAAGUGGCGGUGCCUAGACUGCC [U32G G36C] | 0.05
GGCAGAGCUCAACACAGCGUGGCAAAGUGGCGGUGACUAGACUGCC [U32G G36A] | 0.09
